# Test results reported in paper PMC7804408.
# Target: trigger factor (TF) (E. coli) (UniProt P0A850)
# Experiment: SPR; TF immobilised on a CM5 chip by amine coupling, analytes injected at 20 μL/min for 90 s; Biacore X, 22 °C; 10 mM HEPES pH 7.5, 150 mM NaCl, 3 mM EDTA, 0.005% P20; steady-state response against concentration, one-site Langmuir model; apparent Kd for ClpX
# Chain of trigger factor (TF) (E. coli) (P0A850 whole entry): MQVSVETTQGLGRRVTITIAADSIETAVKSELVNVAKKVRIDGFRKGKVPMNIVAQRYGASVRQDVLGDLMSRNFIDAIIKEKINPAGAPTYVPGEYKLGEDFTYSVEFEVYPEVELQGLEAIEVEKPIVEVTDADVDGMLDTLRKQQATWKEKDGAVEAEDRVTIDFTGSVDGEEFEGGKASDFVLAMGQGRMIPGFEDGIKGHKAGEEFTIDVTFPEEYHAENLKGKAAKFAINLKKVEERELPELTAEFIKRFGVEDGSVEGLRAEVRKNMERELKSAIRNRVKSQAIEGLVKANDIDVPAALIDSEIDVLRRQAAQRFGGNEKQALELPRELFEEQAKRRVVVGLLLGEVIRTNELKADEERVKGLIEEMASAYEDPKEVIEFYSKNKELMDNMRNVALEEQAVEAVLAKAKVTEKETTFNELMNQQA
substance,measurement,value
ClpX∆ZBD (AAA+ domain of ClpX) (domain or fragment),Kd,2000 nM
